Where no end group is shown, it is not given here.
Tests used:
PSMA Fab [1] = molecular target: T1, PSMA Fab (biotinylated (site not stated)); assay: clonal phage ELISA on biotinylated PSMA Fab captured on neutravidin plates, anti-M13 HRP detection;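 further: crude clonal phage supernatants tested, before phage were added, wells were pretreated with PSMA antigen in blocking buffer or with blocking buffer only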
T1 construct: also called Anti-PSMA Fab; 006 PSMA Fab

PSMA Fab [2] = molecular target: T1, PSMA Fab; assay: clonal phage ELISA on captured PSMA Fab, wells pre-incubated with PSMA antigen as competitor; column meaning inferred
Procedure: (§1) Clonal phage were harvested as crude supernatants and screened via standard ELISAs. […] Prior to the addition of clonal phage. wells were incubated with blocking buffer and PSMA antigen or blocking buffer alone. Without washing or aspirating, clonal phage supernatants were then added to the wells and incubated for a short time. Wells were then washed followed by detection of bound phage using a horse radish conjugated anti-M13 antibody.

PSMA Fab [3] = molecular target: T2, PSMA Fab (biotinylated (site not stated)); assay: clonal phage ELISA; PSMA Fab wells pre-incubated with PSMA antigen as competitor; anti-M13-HRP detection
T2 construct: also called Anti-PSMA Fab; 006 PSMA Fab

PSMA Fab [4] = molecular target: T2, PSMA Fab; assay: clonal phage ELISA; biotinylated PSMA Fab on neutravidin plate; bound phage detected with anti-M13-HRP
Procedure: as §1

PSMA Fab (006 PSMA Fab) = molecular target: T3, PSMA Fab (006 PSMA Fab) (biotinylated (site not given)); assay: clonal phage ELISA; biotinylated PSMA Fab on neutravidin plate, blocking buffer alone; anti-M13 HRP detection;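 further: crude clonal phage supernatants added without washing to wells pretreated with blocking buffer with or without PSMA antigen, short incubation, then washed before detecting bound phage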
T3 construct: also called Anti-PSMA Fab; anti-PSMA Fab

Binder | Phage binding ELISA signal, Anti-PSMA Fab with PSMA antigen (PSMA Fab [3]) | Phage binding ELISA signal, Anti-PSMA Fab (PSMA Fab [4]) | Phage binding ELISA signal, Anti-PSMA Fab (PSMA Fab (006 PSMA Fab)) | also measured
VEKWCIPEWMCETS (cysteine pairing not given here; also: displayed on phage pIII, linker not given here, Clonal phage of the peptide-180 library; not shown: fused to pIII of the bacteriophage) [Phage-2611] |  |  |  | Phage binding ELISA signal, Anti-PSMA Fab (PSMA Fab [1]): 1.02; Phage binding ELISA signal, Anti-PSMA Fab in presence of PSMA antigen (PSMA Fab [2]): 0.0624
FANWCTPSWMCVGM (cysteine pairing not given here; also: displayed on phage pIII, linker not given here, Clonal phage of the peptide-180 library; not shown: fused to pIII of the bacteriophage) [Phage-2612] |  |  |  | Phage binding ELISA signal, Anti-PSMA Fab (PSMA Fab [1]): 1.02; Phage binding ELISA signal, Anti-PSMA Fab in presence of PSMA antigen (PSMA Fab [2]): 0.0676
MYNLCTPEWMCAGF (cysteine pairing not given here; also: displayed on phage pIII, linker not given here, Clonal phage of the peptide-180 library; not shown: fused to pIII of the bacteriophage) [Phage-2613] |  |  |  | Phage binding ELISA signal, Anti-PSMA Fab (PSMA Fab [1]): 1.02; Phage binding ELISA signal, Anti-PSMA Fab in presence of PSMA antigen (PSMA Fab [2]): 0.0554
HVNWCTPKWMCSGF (cysteine pairing not given here; also: displayed on phage pIII, linker not given here, Clonal phage of the peptide-180 library; not shown: fused to pIII of the bacteriophage) [Phage-2614] |  |  |  | Phage binding ELISA signal, Anti-PSMA Fab (PSMA Fab [1]): 1.02; Phage binding ELISA signal, Anti-PSMA Fab in presence of PSMA antigen (PSMA Fab [2]): 0.0894
HEKWCIPPWMCEAN (cysteine pairing not given here; also: fused to phage pIII (clonal phage display), Clonal phage of the peptide-180 library; not shown: fused to pIII of the bacteriophage) [Phage-2615] |  |  |  | Phage binding ELISA signal, Anti-PSMA Fab (PSMA Fab [1]): 1.01; Phage binding ELISA signal, Anti-PSMA Fab in presence of PSMA antigen (PSMA Fab [2]): 0.0603
QDNWCIPRWMCEAM (cysteine pairing not given here; also: displayed on phage pIII, linker not given here, Clonal phage of the peptide-180 library; not shown: fused to pIII of the bacteriophage) [Phage-2616] |  |  |  | Phage binding ELISA signal, Anti-PSMA Fab (PSMA Fab [1]): 1.01; Phage binding ELISA signal, Anti-PSMA Fab in presence of PSMA antigen (PSMA Fab [2]): 0.0626
YTPWCKPAWMCSVS (cysteine pairing not given here; also: displayed on phage pIII, linker not given here, Clonal phage of the peptide-180 library; not shown: fused to pIII of the bacteriophage) [Phage-2617] |  |  |  | Phage binding ELISA signal, Anti-PSMA Fab (PSMA Fab [1]): 1.01; Phage binding ELISA signal, Anti-PSMA Fab in presence of PSMA antigen (PSMA Fab [2]): 0.0806
AFKWCIPNWMCASQ (cysteine pairing not given here; also: fused to phage pIII (clonal phage display), Clonal phage of the peptide-180 library; not shown: fused to pIII of the bacteriophage) [Phage-2618] |  |  |  | Phage binding ELISA signal, Anti-PSMA Fab (PSMA Fab [1]): 1.01; Phage binding ELISA signal, Anti-PSMA Fab in presence of PSMA antigen (PSMA Fab [2]): 0.0999
MNKWCTPAWMCEVV (cysteine pairing not given here; also: displayed on phage as pIII fusion) [Phage-2619] | 0.095 | 0.998 |  | 
IANWCTPQWMCDGF [Phage-2620] | 0.0631 | 0.997 |  | 
VPKWCTPDWMCYGM [Phage-2621] | 0.0681 | 0.996 |  | 
FHMWCTPAWMCADQ (cysteine pairing not given here; also: displayed on phage as pIII fusion) [Phage-2622] | 0.126 | 0.996 |  | 
TPKWCTPPWMCQHG [Phage-2623] | 0.0728 | 0.994 |  | 
MTQWCIPEWMCSEE [Phage-2624] | 0.0648 | 0.99 |  | 
PETRCIPSWMCSGM [Phage-2625] | 0.0912 | 0.989 |  | 
VEMLCKPAWMCANQ (cysteine pairing not given here; also: displayed on phage as pIII fusion) [Phage-2626] | 0.0829 | 0.986 |  | 
WEKWCTPSGMCDAR [Phage-2627] | 0.106 | 0.982 |  | 

Binder | Phage binding ELISA signal, Anti-PSMA Fab with PSMA antigen (PSMA Fab [3]) | Phage binding ELISA signal, Anti-PSMA Fab (PSMA Fab [4]) | Phage binding ELISA signal, Anti-PSMA Fab (PSMA Fab (006 PSMA Fab)) | also measured
LNNWCTPLWMCQMF [Phage-2628] | 0.201 | 0.979 |  | 
VVPRCTPPWMCLVS [Phage-2629] | 0.0785 | 0.976 |  | 
VTKLCIPEWMCASD (cysteine pairing not given here; also: displayed on phage as pIII fusion) [Phage-2630] | 0.0961 | 0.975 |  | 
VMSWCVPAWMCETP [Phage-2631] | 0.0614 | 0.973 |  | 
AEKWCIPEWMCEQL [Phage-2632] | 0.0717 | 0.972 |  | 
THHWCIPAWMCEQD [Phage-2633] | 0.0809 | 0.967 |  | 
DMNWCSPPWMCFGF (cysteine pairing not given here; also: displayed on bacteriophage as fusion to pIII, fusion and linker not given here, Tested as clonal phage supernatant; also called Peptide-180 library clone) [Phage-2680] |  |  | 0.873 | 
GEKWCTPPWMCMFQ (cysteine pairing not given here; also: displayed on bacteriophage as fusion to pIII, fusion and linker not given here, Tested as clonal phage supernatant; also called Peptide-180 library clone) [Phage-2681] |  |  | 0.861 | 
DVKWCIPSWMCQDV (cysteine pairing not given here; also: displayed on bacteriophage as fusion to pIII, fusion and linker not given here, Tested as clonal phage supernatant; also called Peptide-180 library clone) [Phage-2682] |  |  | 0.859 | 
EYAWCIPEWMCGWI (cysteine pairing not given here; also: displayed on bacteriophage as fusion to pIII, fusion and linker not given here, Tested as clonal phage supernatant; also called Peptide-180 library clone) [Phage-2683] |  |  | 0.858 | 
SEAWCIPSWMCRGD (cysteine pairing not given here; also: fused to phage pIII (clonal phage display), Tested as clonal phage supernatant; also called Peptide-180 library clone) [Phage-2684] |  |  | 0.857 | 
PMKLCSPPWMCFYD (cysteine pairing not given here; also: displayed on bacteriophage as fusion to pIII, fusion and linker not given here, Tested as clonal phage supernatant; also called Peptide-180 library clone) [Phage-2685] |  |  | 0.85 | 
QNIRCVPPWMCENL (cysteine pairing not given here; also: displayed on bacteriophage as fusion to pIII, fusion and linker not given here, Tested as clonal phage supernatant; also called Peptide-180 library clone) [Phage-2686] |  |  | 0.844 | 
VHYWCIPAWMCNKS (cysteine pairing not given here; also: displayed on bacteriophage as fusion to pIII, fusion and linker not given here, Tested as clonal phage supernatant; also called Peptide-180 library clone) [Phage-2687] |  |  | 0.841 | 
EAHLCKPLWMCEFG (cysteine pairing not given here; also: displayed on bacteriophage as fusion to pIII, fusion and linker not given here, Tested as clonal phage supernatant; also called Peptide-180 library clone) [Phage-2688] |  |  | 0.84 | 
IKPLCSPPWMCSMY (cysteine pairing not given here; also: displayed on bacteriophage as fusion to pIII, fusion and linker not given here, Tested as clonal phage supernatant; also called Peptide-180 library clone) [Phage-2689] |  |  | 0.839 | 
LVKWCTPTWMCVGM (cysteine pairing not given here; also: displayed on bacteriophage as fusion to pIII, fusion and linker not given here, Tested as clonal phage supernatant; also called Peptide-180 library clone) [Phage-2690] |  |  | 0.837 | 
